Data reported in the DeepSol protein solubility set.

Assay: soluble on expression in E. coli; label from the status in PepcDB or PDB records

Sequence | soluble on expression in E. coli
MSLSMKKERGVVYTPLKISNYIIDSTISEEDIIKNPFLKIVDPACGCGNIIIPCFIYLRNIYIKNLDKINNINKLELREENINYHIIKNNLFGYDVDLNAIKVLTIDLFCESKCFSSNFLCKDFLLDEIGIKYDIFLSNPPYVGLKSINKEYSAILKTMYPSYKDKADISYCFFEKSILCLKIDGKLGFITSRYFLESQSGEELRRILVEKCSLYKIVDFYGIRPFKKAGIDTVMIFLERGIGDRKSIEIIKPKIMKNNRKDEFYYSLFNGTNEGIDKFYINIKALDSKRWILRKDEEIDIINKIEKNSEGHHHHHH | not soluble
PYKASKSRGLVVSNIYSRYDINELESGLMRVSQNKYSPDNYLFQEGQYLDKETLEKWLDRKSEKNPNGLNPESNGDGKDRKPIYLAHILEQDYLKQTDKDTVALGGISIALAMNSVDYYQKEQYGDTFEQEISDSDLLAQGKEMSGTVLNRIRQTKGLENVPVTIAIYKQGPRDAVAPGNFLTYATANGDSLSSWKDVEEKNYVLPSTESAKDHKTDNDNFLNFKKAIEDYYPNFTGVVGRARYEDGQLAELSIDIPLQFYGQAEIIGFTQYVTDLVGQHIPKTADLQVNISTSDGPAALITRKANEDAATA | not soluble
MSLHLKVFAKPKITYVENQTAMELEEQVTLTCEASGDPIPSITWRTSTRNISSEEKASWTRPEKQETLDGHMVVRSHARVSSLTLKSIQYTDAGEYVCTASNTIGQDSQSMYLEVQYAPKLQGPVAVYTWEGNQVNITCEVFAYPSATISWFRDGQLLPSSNYSNIKIYNTPSASYLEVTPDSENDFGNYNCTAVNRIGQESLEFVLVQADTPSSPSIDQVEPYSSTAQVQFDEPEATGGVPILKYKAEWRAMGEEVWHSKWYDAKEASMEGIVTIVGLKPETTYAVRLAALNGKGLGEISAASEFKTQPVREPSAEGHHHHHH | not soluble
MPIRAARASLRRMDSDFLIIGGGIAGVSAAARLSELGSVTLLEAEDALAHHASSRSAALYEPRYGLPPVVELSLASGDFFRAADGILSPRGLLVVGREAEREQFEDETVGMHLERISAEEARAAVPILRPDVTLAARADHAWDIDTDRLLQGFAREARARGARIVTKARVGAIARDGAGWRVEAGESYRARILVNAAGAWADGVAALSGVRPLGLVPYRRSMARIPAPGGHDISRWPMIFGVGESWYAKPDAGALIVSPADEDPQEPHDAWADDMVLAEGLARYEEMVTEPVTRLLASWAGLRTFAPDRVLVIGEDPAAPGFFWLAGQGGYGFQTCPAASRLAADLIGGRSPEVPAALIAALSPDRFALEHHHHHH | not soluble
GMPRPKLKSDDEVLEAATVVLKRCGPIEFTLSGVAKEVGLSRAALIQRFTNRDTLLVRMMERGVEQVRHYLNAIPIGAGPQGLWEFLQVLVRSMNTRNDFSVNYLISWYELQVPELRTLAIQRNRAVVEGIRKRLPPGAPAAAELLLHSVIAGATMQWAVDPDGELADHVLAQIAAILCLMFPEHDDFQLLQAHA | soluble
GPGSMVHRQDGAVVHCSRETGRLSAIIAPSILASDFAQLLSECQSVLSPEGGAADWLHVDVMDGHFVPNISIGMCVVQSLRSHLQDVFLDVHCMVSDPDRWVEEMAKAGATQMTFHVEAVADPKAVARHIRAAGMLCGVALKPKTPVSSVLNLVEEQLIDMVLVMTVEPGFGGQSFMQDMMPKVEELRARFPCLNIQVDGGIGPGTIDAPARAGANVIVAGTSIFRADSRKEATESMRRVVQGYLGSTTS | soluble
MGSDKIHHHHHHMKKLTVYLATTNPHKVEEIKMIAPEWMEILPSPEKIEVVEDGETFLENSVKKAVVYGKKLKHPVMADDSGLVIYSLGGFPGVMSARFMEEHSYKEKMRTILKMLEGKDRRAAFVCSATFFDPVENTLISVEDRVEGRIANEIRGTGGFGYDPFFIPDGYDKTFGEIPHLKEKISHRSKAFRKLFSVLEKILESENR | soluble
MAGFMKNAMSYLGMSDVVDDEDDYIEEDEEQKPASKSAFDSDHTVTPLASTTAPAASSTTKPFPGGRVNRITTIHPKSYEDAQLVGRALRDGVPVVLNLTGVAEAVAYRIVDFSAGVVFGVRGSLERVTPRVFLLSPAQVNIKVEEPTKPASAHDLFADAAALEHHHHHH | not soluble
MRKGCFGLVSLVLLLLVGCRSHPEIPVNDEQSLVMESSLLAAGISAEKPFLSTSDIQPSASSTLYNERQEPVTVHYRFYWYDARGLEMHPLERPRSVTIPAHSAVTLYGSANFLGAHKVRLYLYLLEHHHHHH | soluble
TQAMEGLLHYINPAHAISLLSALNEERLKGQLCDVLLIVGDQKFRAHKNVLAASSEYFQSLFTNKENESQTVFQLDFCEPDAFDNVLNYIYSSSLFVEKSSLAAVQELGYSLGISFLTNIVSKTPQAPFPTCPNRKKVFVEDDENSSQKRSVIVCQSRNEAQGKTVSQNQPDVSHTSRPSPSIAVKANTNKPHVPKPIEPLHNLSLTEKSWPKDSSVVYAKSLEHSGSLDDPNRISLVKRNAVLPSKPLQDREAMDDKPGVSGQLPKGKALELALKRPRPPVLSVCSSSETPYLLKETNKGNGQGEDRNLLYYSKLGLVIPSSGSGSGNQSIDRSGPLVKSLLRRSLSMDSQVPVYSPSIDLKSSQGSSSVSSDAPGNVLCALSQKSSLKDCSEKTALDDRPQVLQPHRLRSFSASQSTDREGASPVTEVRIKTEPSSPLSDPSDIIRVTVGDAATTAAASSSSVTRDLSLKTEDDQKDMSRLPAKRRFQADRRLPFKKLKVNEHGSPVSEDNFEEGSSPTLLDADFPDSDLNKDEFGELEGTRPNKKFKCKHCLKIFRSTAGLHRHVNMYHNPEKPYACDICHKRFHTNFKVWTHCQTQHGIVKNPSPASSSHAVLDEKFQRKLIDIVREREIKKALIIKLRRGKPGFQGQSSSQAQQVIKRNLRSRAKGAYICTYCGKAYRFLSQFKQHIKMHPGEKPLGVNKVAKPKEHAPLASPVENKEVYQCRLCNAKLSSLLEQGSHERLCRNAAVCPYCSLRFFSPELKQEHESKCEYKKLTCLECMRTFKSSFSIWRHQVEVHNQNNMAPTENFSLPVLDHNGDVTGSSRPQSQPEPNKVNHIVTTKDDNVFSDSSEQVNFDSEDSSCLPEDLSLSKQLKIQVKEEPVEEAEEEAPEASTAPKEAGPSKEASLWPCEKCGKMFTVHKQLERHQELLCSVKPFICHVCNKAFRTNFRLWSHFQSHMSQASEESAHKESEVCPVPTNSPSPPPLPPPPPLPKIQPLEPDSPTGLSENPTPATEKLFVPQESDTLFYHAPPLSAITFKRQFMCKLCHRTFKTAFSLWSHEQTHN | soluble
SEEASTGTMVLLWAGGFQKVGGEQVSPLTGEVTRHRDRNIPYNLPVPSHPSNWVPLAAEVGPDSCDCGGPAPGLLLLLTRPHDPQFTVPSGWGRQLCPGHALLDEPLLPETGGHPVCERVGHPAPSGPPDLLGLAAGHVLCRVRHDTPVRIPGTGSGCVCTHPAVQWQADLLPHLTLWPNPGQGTVRTSVRNSGHTEEQQVGLS | soluble
MRHFDASQPLRVAVLGTGFGSKVHIPALQHHSETTVQAVYHRQPDRAAAIAVQFGIPNAYSDLDQLLADPAIEAVTIASPPFLHYPMAWAALSAGKSVLLEKPTTLNVEEARALWKLASSQGLTVTLDFEYRFVPAWQYVAELLAEGVIGQPWLVKLDWLMSSRADASRPWNWYALRSQGGGALGALGSHSFDYLAWLFGPARRLQARLFTAIQERPDATTGELKPVDSDDTDLIQLELAEGVPCQISLSSVFRQGRGHWLEVYGDRGTLILGSSNQKDYVHGFQVWFASAGQALQELTVPQRLAFRQEFADGRLAPFLRVVDHWLADLRHGQMTAPSLKEGLYSQLLIDLCWQSQRSGEWQTVPELNRFLLEHHHHHH | not soluble
MNKLYIGNLSPAVTADDLRQLFGDRKLPLAGQVLLKSGYAFVDYPDQNWAIRAIETLSGKVELHGKIMEVDYSVSKKLRSRKIQIRNIPPHLQWEVLDGLLAQYGTVENVEQVNTDTETAVVNVTYATREEAKIAMEKLSGHQFENYSFKISYIPDEEVSSPSPPQRAQRGDHSSREQGHAPGGTSQARQIDFPLRILVPTQFVGAIIGKEGLTIKNITKQTQSRVDIHRKENSGAAEKPVTIHATPEGTSEACRMILEIMQKEADETKLAEEIPLKILAHNGLVGRLIGKEGRNLKKIEHETGTKITISSLQDLSIYNPERTITVKGTVEACASAEIEIMKKLREAFENDMLAVNQQANLIPGLNLSALGIFSTGLSVLSPPAGPRGAPPAAPYHPFTTHSGYFSSLYPHHQFGPFPHHHSYPEQEIVNLFIPTQAVGAIIGKKGAHIKQLARFAGASIKIAPAEGPDVSERMVIITGPPEAQFKAQGRIFGKLKEENFFNPKEEVKLEAHIRVPSSTAGRVIGKGGKTVNELQNLTSAEVIVPRDQTPDENEEVIVRIIGHFFASQTAQRKIREIVQQVKQQEQKYPQGVASQRSK | soluble
MVEATAQETDRPRFSFSIAAREGKARTGTIEMKRGVIRTPAFMPVGTAATVKALKPETVRATGADIILGNTYHLMLRPGAERIAKLGGLHSFMGWDRPILTDSGGFQVMSLSSLTKQSEEGVTFKSHLDGSRHMLSPERSIEIQHLLGSDIVMAFDECTPYPATPSRAASSMERSMRWAKRSRDAFDSRKEQAENAALFGIQQGSVFENLRQQSADALAEIGFDGYAVGGLAGGEGQDEMFRVLDFSVPMLPDDKPHYLMGVGKPDDIVGAVERGIDMFDCVLPTRSGRNGQAFTWDGPINIRNARFSEDLKPLDSECHCAVCQKWSRAYIHHLIRAGEILGAMLMTEHNIAFYQQLMQKIRDSISEGRFSQFAQDFRARYFARNS | soluble
MSERRIDVNRSNYSVIDNEFGNMRDRFEQEMRRVEEEMKRLRSEFEGYRPNGGPPAAISNQPYNAYSNTSSHHETSNRTGGFGSPLPPPSFHGPSDLMAHRPTYDPYLDNLKSPLIKDESDGKTLRLRFDVANYKPEEVTVKTIDNRLLVHAKHEEKTPQRTVFREYNQEFLLPRGTNPEQISSTLSTDGVLTVEAPLPQLAIQQ | not soluble
MESELIFHEGGCHCGKIKWRVKAARSVIAWSCNCSDCSMRGNVHFIVPSSNFELLDDSKDFITTYTFGTHTAKHTFCKVCGITSFYIPRSNPDGVAVTVKCVKSGTLAHIEVKSYDGQNWEMSHKKTGIASFSKE | soluble
MNSAWALLRLASPQLPIGGYSYSQGLEMAVEQSIVIDPQTAGRWIGDQLLLNLARFEAPLLLAHCEAAAVGDWGQLLQVSEQHRASRETRELHQESRQMGYSLQQLLNGLPELDRDARRFLEQTTEPHLALGWALAARTWRISPQDALAAWLWSWLENQLAVLMKTLPLGQQAAQRLTSELLPLLQQAQVNASAQDTHPAGSAAFGLALASMAHERQYSRLFRS | soluble
MAHHHHHHMKEHSHIIGLGDFFADAKKCWVLLASKSPRRIELMKLMGVSNLYICESGFEENLDKKQFASAEHYVKENALQKGLNVASHVWFGDQANTHSEGNVKEEETKKSTQQGSDSGHLSIGQPENEQHCTDATKKHQVKSLHSTYDPIPKVIISCDTIVTLKDEIIEKPLNKEHAREILKKLSSNIHCVYTAVCIFLHKTKVPITFIEKTDVHFDDLLEQDILEYLNSSEPYDKAGAYSIQGVGCQFIKKINGCYYNVMGLPINKLSKTLTQLCVEGKISA | soluble
MAHHHHHHMSWQGPRVLVVGENQWEREAVSRALLNLAVRHGSPYGICYVDLDVAMPMVGCPGTVSAAFVEEPVTAPEDFGVMMPLTFFHGTASVTSATRKRYLDLCVCAAQAATSLGFANSKFEAGGFLIHSLSPSTEIQHDVLSDVLSIFAVTHVVVTGADRELEKFLYNAVLGRTVHFVRLPKLAGVQSPSSAGAEQRRRAQLERYFFGTPRTPLVPVRGVARMSELVLLHAETFEPLSWREVPDLGLAAVVWADTAASAAEANVAGFVALLEVGKQFVSFLAPSGGELPKPFLVVSPSLHLPRELVMPLPVT | not soluble
